Test in all cases: cell-based or functional assay
Assay [1] addresses Y1R.
Assay [2] has as its target Y4R.
Assay [3] deals with T1, Y5R.
T1 sequence (Q15761 whole entry, species assumed, looked up): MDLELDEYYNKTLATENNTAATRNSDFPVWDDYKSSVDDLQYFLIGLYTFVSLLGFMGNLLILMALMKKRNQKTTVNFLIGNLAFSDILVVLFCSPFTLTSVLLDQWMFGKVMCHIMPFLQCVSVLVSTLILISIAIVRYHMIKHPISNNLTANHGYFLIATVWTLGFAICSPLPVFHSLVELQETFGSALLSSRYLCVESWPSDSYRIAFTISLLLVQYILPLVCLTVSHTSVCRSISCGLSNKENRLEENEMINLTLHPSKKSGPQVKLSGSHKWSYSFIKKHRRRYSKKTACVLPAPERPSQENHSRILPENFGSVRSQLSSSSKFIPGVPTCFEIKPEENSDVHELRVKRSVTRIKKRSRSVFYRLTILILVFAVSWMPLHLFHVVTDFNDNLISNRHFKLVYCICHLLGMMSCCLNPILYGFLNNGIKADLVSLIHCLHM

Assay [4] deals with T2, human NPY2 receptor (human, UniProt P49146 1-381).
T2 sequence (looked up): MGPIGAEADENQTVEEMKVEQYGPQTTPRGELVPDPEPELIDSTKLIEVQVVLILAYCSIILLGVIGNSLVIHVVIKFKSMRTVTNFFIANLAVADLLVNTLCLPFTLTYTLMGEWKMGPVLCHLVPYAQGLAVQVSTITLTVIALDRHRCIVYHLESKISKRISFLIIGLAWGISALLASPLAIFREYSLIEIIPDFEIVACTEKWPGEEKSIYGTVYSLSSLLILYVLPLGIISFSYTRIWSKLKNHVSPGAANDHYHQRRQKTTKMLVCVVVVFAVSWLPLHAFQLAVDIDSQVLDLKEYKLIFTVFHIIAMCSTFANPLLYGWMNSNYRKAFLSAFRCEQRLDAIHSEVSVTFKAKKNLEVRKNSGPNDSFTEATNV

Starred links: 1 amine or outer side, 2 acyl side, 3 side chain; linkers in the order of their positions; H or OH if unused. Non-standard residues stand in square brackets, D forms with d. No end group written: not given here. Pqa = 4-oxo-6-(1-piperazinyl)-3(4H)-quinazoline-acetic acid, O=C(Cn1cnc2ccc(N3CCN([*:1])CC3)cc2c1=O)[*:2]; Phe(3,4-Cl2) = N[C@@H](Cc1ccc(Cl)c(Cl)c1)C(=O)O; NMeR = CN[C@@H](CCCNC(=N)N)C(=O)O

Y1R, sequence (P25929 whole entry): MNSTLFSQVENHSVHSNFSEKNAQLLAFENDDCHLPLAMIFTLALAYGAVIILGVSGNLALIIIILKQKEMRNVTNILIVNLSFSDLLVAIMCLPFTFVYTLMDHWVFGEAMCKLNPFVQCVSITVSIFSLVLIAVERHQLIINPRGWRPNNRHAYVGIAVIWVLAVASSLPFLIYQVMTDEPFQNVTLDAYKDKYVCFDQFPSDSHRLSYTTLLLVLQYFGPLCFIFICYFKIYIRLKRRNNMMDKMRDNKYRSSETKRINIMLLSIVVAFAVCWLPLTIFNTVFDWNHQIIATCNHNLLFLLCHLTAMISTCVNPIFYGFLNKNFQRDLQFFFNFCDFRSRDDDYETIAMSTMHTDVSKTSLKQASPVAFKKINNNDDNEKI

B1: ((PEC30,000)CH2Cl2NHCOCH2CH2CO)Ile-Nle-Pqa-Arg-His-Tyr-Leu-Asn-Trp-Val-Thr-Arg-Gln-(NMe)Arg-Tyr-NH2 (peptide)
peptide: IXXRHYLNWVTRQRY
modifications: PEG30,000-SSA (PEG-CH2CH2NHCOCH2CH2CO-) on the N-terminal Ile; Nle as second residue; Pqa as third residue; (NMe)Arg as penultimate residue; C-terminal amide (NH2)
With B1, the “Y1R EC50 (nM) FLIPR” value in assay [1] was > 5000 nM. Moreover, the “Y4R EC50 (nM) FLIPR” value in assay [2] was > 5000 nM. In assay [3], the “Y5R EC50 (nM) FLIPR” value was > 5000 nM.

B2: Cyclohexylacetyl-Ile-Lys-Pqa-Arg-His-Tyr-Leu-Asn-Trp-Val-Thr-Arg-Gln-(NMe)Arg-Tyr-NH2 (peptide)
peptide: IKXRHYLNWVTRQRY
HELM: PEPTIDE1{[O=C(CC1CCCCC1)[*:2]].I.K.[O=C(Cn1cnc2ccc(N3CCN([*:1])CC3)cc2c1=O)[*:2]].R.H.Y.L.N.W.V.T.R.Q.[meR].Y.[am]}$$$$V2.0
SMILES: CC[C@H](C)[C@H](NC(=O)CC1CCCCC1)C(=O)N[C@@H](CCCCN)C(=O)N1CCN(c2ccc3ncn(CC(=O)N[C@@H](CCCNC(=N)N)C(=O)N[C@@H](Cc4c[nH]cn4)C(=O)N[C@@H](Cc4ccc(O)cc4)C(=O)N[C@@H](CC(C)C)C(=O)N[C@@H](CC(N)=O)C(=O)N[C@@H](Cc4c[nH]c5ccccc45)C(=O)N[C@H](C(=O)N[C@H](C(=O)N[C@@H](CCCNC(=N)N)C(=O)N[C@@H](CCC(N)=O)C(=O)N(C)[C@@H](CCCNC(=N)N)C(=O)N[C@@H](Cc4ccc(O)cc4)C(N)=O)[C@@H](C)O)C(C)C)c(=O)c3c2)CC1
Take B2: in assay [4], the “Y2R EC50 (nM) FLIPR” value was determined as 1.67 nM and the “Y2R EC50 (nM) cAMP” value was 1.37 nM. Further, the “Y1R EC50 (nM) FLIPR” value in assay [1] was > 5000 nM. Besides, in assay [2], the “Y4R EC50 (nM) FLIPR” value is > 5000 nM. Also, the “Y5R EC50 (nM) FLIPR” value in assay [3] was > 5000 nM.

B3: Ac-Ile-Lys-Pqa-Arg-His-Tyr-Leu-Asn-Trp-Val-Thr-Arg-Gln-(NMe)Arg-2,6-F2-Tyr-NH2 (peptide)
peptide: IKXRHYLNWVTRQRY
HELM: PEPTIDE1{[ac].I.K.[O=C(Cn1cnc2ccc(N3CCN([*:1])CC3)cc2c1=O)[*:2]].R.H.Y.L.N.W.V.T.R.Q.[meR].[O=C([C@H](Cc1c(F)cc(O)cc1F)N[*:1])[*:2]].[am]}$$$$V2.0
SMILES: CC[C@H](C)[C@H](NC(C)=O)C(=O)N[C@@H](CCCCN)C(=O)N1CCN(c2ccc3ncn(CC(=O)N[C@@H](CCCNC(=N)N)C(=O)N[C@@H](Cc4c[nH]cn4)C(=O)N[C@@H](Cc4ccc(O)cc4)C(=O)N[C@@H](CC(C)C)C(=O)N[C@@H](CC(N)=O)C(=O)N[C@@H](Cc4c[nH]c5ccccc45)C(=O)N[C@H](C(=O)N[C@H](C(=O)N[C@@H](CCCNC(=N)N)C(=O)N[C@@H](CCC(N)=O)C(=O)N(C)[C@@H](CCCNC(=N)N)C(=O)N[C@@H](Cc4c(F)cc(O)cc4F)C(N)=O)[C@@H](C)O)C(C)C)c(=O)c3c2)CC1
In the case of B3, in assay [4], the “Y2R EC50 (nM) FLIPR” value was determined as 1.44 nM and the “Y2R EC50 (nM) cAMP” value is 0.07 nM. In addition, the “Y1R EC50 (nM) FLIPR” value in assay [1] was > 5000 nM. Besides, the “Y4R EC50 (nM) FLIPR” value in assay [2] was > 5000 nM. Besides, the “Y5R EC50 (nM) FLIPR” value in assay [3] came to 5810 nM.
On to H-IK[Pqa]RHYLNLVTRQ[NMeR][Phe(3,4-Cl2)]-NH2 [H-Ile-Lys-Pqa-Arg-His-Tyr-Leu-Asn-Leu-Val-Thr-Arg-Gln-(NMe)Arg-3,4-dichloro-Phe-NH2], for which, in assay [4], the “Y2R EC50 (nM) FLIPR” value worked out at 4.03 nM and the “Y2R EC50 (nM) cAMP” value came out at 1.47 nM.

B4: Trimethylacetyl-Ile-Lys-Pqa-Arg-His-Tyr-Leu-Asn-Trp-Val-Thr-Arg-Gln-(NMe)Arg-Tyr-NH2 (peptide)
peptide: IKXRHYLNWVTRQRY
HELM: PEPTIDE1{[CC(C)(C)C(=O)[*:2]].I.K.[O=C(Cn1cnc2ccc(N3CCN([*:1])CC3)cc2c1=O)[*:2]].R.H.Y.L.N.W.V.T.R.Q.[meR].Y.[am]}$$$$V2.0
SMILES: CC[C@H](C)[C@H](NC(=O)C(C)(C)C)C(=O)N[C@@H](CCCCN)C(=O)N1CCN(c2ccc3ncn(CC(=O)N[C@@H](CCCNC(=N)N)C(=O)N[C@@H](Cc4c[nH]cn4)C(=O)N[C@@H](Cc4ccc(O)cc4)C(=O)N[C@@H](CC(C)C)C(=O)N[C@@H](CC(N)=O)C(=O)N[C@@H](Cc4c[nH]c5ccccc45)C(=O)N[C@H](C(=O)N[C@H](C(=O)N[C@@H](CCCNC(=N)N)C(=O)N[C@@H](CCC(N)=O)C(=O)N(C)[C@@H](CCCNC(=N)N)C(=O)N[C@@H](Cc4ccc(O)cc4)C(N)=O)[C@@H](C)O)C(C)C)c(=O)c3c2)CC1
With B4, in assay [4], the “Y2R EC50 (nM) FLIPR” value was 1.1 nM and the “Y2R EC50 (nM) cAMP” value was 0.26 nM. Further, the “Y1R EC50 (nM) FLIPR” value in assay [1] is > 5000 nM. Besides, in assay [2], the “Y4R EC50 (nM) FLIPR” value was > 5000 nM. In addition, the “Y5R EC50 (nM) FLIPR” value in assay [3] is > 5000 nM.

B5: H-Ile-Lys-Pqa-Arg-His-Tyr-Leu-Asn-Leu-Val-Thr-Arg-Gln-(NMe)Arg-4 Methoxy-Phe-NH2 (peptide)
peptide: IKXRHYLNLVTRQRF
modifications: Pqa as third residue; (NMe)Arg as penultimate residue; 4 Methoxy-Phe as C-terminal residue; C-terminal amide (NH2)
Take B5: in assay [4], the “Y2R EC50 (nM) FLIPR” value amounted to 0.74 nM and the “Y2R EC50 (nM) cAMP” value came to 0.55 nM.
Consider IK[Pqa]RHYLNWVTRQ[NMeR]Y-NH2 (also: mixture: PEG40,000 BTC on N-terminal Ile or on Lys ε-amino), for which the “Y1R EC50 (nM) FLIPR” value in assay [1] is > 5000 nM. In addition, the “Y4R EC50 (nM) FLIPR” value in assay [2] was > 5000 nM. In assay [3], the “Y5R EC50 (nM) FLIPR” value was > 5000 nM.

B6: ((PEG-30,000)CH(CH3)CH2CO)Ile-Nle-Pqa-Arg-His-Tyr-Leu-Asn-Trp-Val-Thr-Arg-Gln-(NMe)Arg-Tyr-NH2 (peptide)
peptide: IXXRHYLNWVTRQRY
modifications: (PEG-30,000)CH(CH3)CH2CO (PEG30,000 beta-SBA) on the N-terminal Ile; Nle as second residue; Pqa as third residue; (NMe)Arg as penultimate residue; C-terminal amide (NH2)
For B6, in assay [1], the “Y1R EC50 (nM) FLIPR” value is > 5000 nM. In assay [2], the “Y4R EC50 (nM) FLIPR” value was > 5000 nM. Moreover, in assay [3], the “Y5R EC50 (nM) FLIPR” value is > 5000 nM.

B7: H-Ile-Lys-Pqa-Arg-His-Tyr-Leu-Asn-Leu-Val-Thr-Arg-Gln-(NMe)Arg-2-Nal-NH2 (peptide)
peptide: IKXRHYLNLVTRQRX
modifications: Pqa as third residue; (NMe)Arg as penultimate residue; 2-Nal (2-Naphthyl Alanine) as C-terminal residue; C-terminal amide (NH2)
As to B7, in assay [4], the “Y2R EC50 (nM) FLIPR” value was found to be 4.11 nM and the “Y2R EC50 (nM) cAMP” value was determined as 2.4 nM.
For H-IK[Pqa]RHYLNWVTRQ[NMeR]Y-NH2 [H-Ile-Lys-Pqa-Arg-His-Tyr-Leu-Asn-Trp-Val-Thr-Arg-Gln-(NMe)Arg-Tyr-NH2], in assay [4], the “Y2R EC50 (nM) FLIPR” value was 0.44 nM and the “Y2R EC50 (nM) cAMP” value worked out at 0.25 nM. Besides, the “Y1R EC50 (nM) FLIPR” value in assay [1] amounted to 298 nM. Besides, the “Y4R EC50 (nM) FLIPR” value in assay [2] was > 5000 nM. Also, the “Y5R EC50 (nM) FLIPR” value in assay [3] was > 5000 nM.

The values above are taken from US7642244 (Hoffmann-La Roche, dated 2010).
